Reference: patent US5622930A, “C1 inhibitor muteins and uses thereof” (CLB, priority 1991, dated 1997)
Numbering of substitutions follows the chain as printed.

B1: P3-arg: C1 inhibitor mutein with Arg substituted for Val at position 442 (P3) (protein, UniProt P05155 23-500, looked up, variant V442R)
Plasma protease C1 inhibitor: NPNATSSSSQDPESLQDRGEGKVATTVISKMLFVEPILEVSSLPTTNSTTNSATKITANTTDEPTTQPTTEPTTQPTIQPTQPTTQLPTDSPTQPTTGSFCPGPVTLCSDLESHSTEAVLGDALVDFSLKLYHAFSAMKKVETNMAFSPFSIASLLTQVLLGAGENTKTNLESILSYPKDFTCVHQALKGFTTKGVTSVSQIFHSPDLAIRDTFVNASRTLYSSSPRVLSNNSDANLELINTWVAKNTNNKISRLLDSLPSDTRLVLLNAIYLSAKWKTTFDPKKTRMEPFHFKNSVIKVPMMNSKKYPVAHFIDQTLKAKVGQLQLSHNLSLVILVPQNLKHRLEDMEQALSPSVFKAIMEKLEMSKFQPTLLTLPRIKVTTSQDMLSIMEKLEFFDFSYDLNLCGLTEDPDLQVSAMQHQTVLELTETGVEAAAASAISRARTLLVFEVQQPFLFVLWDQQHKFPVFMGRVYDPRA
B2: P3-gly: C1 inhibitor mutein with Gly substituted for Val at position 442 (P3) (protein, UniProt P05155 23-500, looked up, variant V442G)
Plasma protease C1 inhibitor: B1 Plasma protease C1 inhibitor with R442G
B3: P3-ala: C1 inhibitor mutein with Ala substituted for Val at position 442 (P3) (protein, UniProt P05155 23-500, looked up, variant V442A)
Plasma protease C1 inhibitor: B1 Plasma protease C1 inhibitor with R442A
B4: P3-leu: C1 inhibitor mutein with Leu substituted for Val at position 442 (P3) (protein, UniProt P05155 23-500, looked up, variant V442L)
Plasma protease C1 inhibitor: B1 Plasma protease C1 inhibitor with R442L
B5: P3-thr: C1 inhibitor mutein with Thr substituted for Val at position 442 (P3) (protein, UniProt P05155 23-500, looked up, variant V442T)
Plasma protease C1 inhibitor: B1 Plasma protease C1 inhibitor with R442T
B6: wild-type: wild type C1 inhibitor, plasma glycoprotein serine protease inhibitor with isoleucine and valine at positions 440 and 442 (protein, UniProt P05155 23-500, looked up)
Plasma protease C1 inhibitor: B1 Plasma protease C1 inhibitor with R442V
B7: P5 -leu:P3 -ala: C1 inhibitor mutein with Leu at position 440 (P5) and Ala at position 442 (P3) (protein, UniProt P05155 23-500, looked up, variant I440L V442A)
Plasma protease C1 inhibitor: B1 Plasma protease C1 inhibitor with I440L, R442A
B8: P5 -leu:P3 -leu: C1 inhibitor mutein with Leu at position 440 (P5) and Leu at position 442 (P3) (protein, UniProt P05155 23-500, looked up, variant I440L V442L)
Plasma protease C1 inhibitor: B1 Plasma protease C1 inhibitor with I440L, R442L

tested on: C1s; test: radioimmune assay of complex formation of C1 inhibitor muteins with solid phase C1s; assay type: binding; conditions: muteins altered only at P3 (position 442, substituted for Val), FIG. 3
Description: (§1) FIG. 2 presents a generalized assay screening format for determining both the inhibitory (complex formation) or protease sensitivity (inactivation) of the C1 muteins. The latter measures inactivation of the C1 inhibitor muteins by non-target proteases. This procedure is also described by Eldering et al., 1988, in J. of Biological Chem., 263: 11776. Modifications of these methods are also known in the art.
Generally, inhibitor activity of C1 muteins may be determined by measuring complex formation between the C1 inhibitor and a substrate. The preferred substrates are, of course, C1s, Kallikrein, B-12a, and plasmin. The C1 inhibitor, or C1 inhibitor muteins, inhibit the protease activity of the substrate by forming a covalent bond with the substrate. These molecules were purified by techniques known in the art, or as described by Liebermann, H., etal., 1984, J. Mol. Biol., 177: 531 and Nuijens, J.,et al., 1987, Immunology, 61: 387.
The preferred assay is a radioimmune assay based on the observation that functional C1 inhibitor muteins bind to activated target substrate, such as C1s. The assay can be performed in several ways, but preferably purified activated C1s is coupled to a solid matrix, preferably Sepharose 4B via cyanogen bromide as is known in the art. Coupled C1s is incubated in an appropriately buffered solution containing, if desired, a small amount of detergent, preferably Tween-20. The latter is used at a concentration of about 0.1% (w/v). The capacity of the C1 inhibitor muteins to complex with the target substrate can be detected using anti-C1 inhibitor mutein antibody. Alternatively, a radiolabelled second antibody can be used to detect the bound first antibody. The antibody may be polyclonal or monoclonal and is incubated for a sufficient time to permit detectible binding of the antibody to the C1 inhibitor to occur. After the appropriate washing steps are conducted whereby non-specifically bound radiolabelled antibody is separated from antibody bound to C1 inhibitor muteins, the amount of radioactivity associated with the latter is determined. In this way, and incorporating the appropriate controls in the assay scheme, the inhibitory capacity of the C1 muteins is determined.
The general procedures for determining both the inhibitory or non-target protease sensitivity of the C1 inhibitor muteins are shown in FIG. 2. The procedures involving C1s will be described briefly, the procedures for the other substrates is similar with modifications as noted by Eldering, 1988, J. Biological Chem., 263: 11776, and as shown by Nuijens et al., above.
As mentioned above, the radioimmune assay to determine the C1 inhibitor activity of the various muteins is based on the observation that functional C1 inhibitor mutein will bind to activated C1s. Thus, purified activated C1s is coupled to CNBr Sepharose 4B and suspended in phosphate-buffered saline, pH 7.4 10 mM EDTA, and 0.1% (w/v) Tween-20. Next, 0.3 ml of this mixture containing 1.5 μg of activated C1s is incubated with various dilutions of the C1 inhibitor muteins for 5 hours. The Sepharose 4B beads are collected, extensively washed, and complexed C1 inhibitor mutein incubated (>4hours) with ^125 I-polyclonal anti-C1 antibody. The antibody is described by Hack, et al., above. The Sepharose beads are washed, and bound radioactivity determined using a LKB 1260 multigamma II gamma counter.

| Molecule | complex formation (inhibitory activity), order among P3 muteins |
| --- | --- |
| B1 | Arg=Gly<Ala<Leu<wild-type=Thr |
| B2 | Arg=Gly<Ala<Leu<wild-type=Thr |
| B3 | Arg=Gly<Ala<Leu<wild-type=Thr |
| B4 | Arg=Gly<Ala<Leu<wild-type=Thr |
| B5 | Arg=Gly<Ala<Leu<wild-type=Thr |
| B6 | Arg=Gly<Ala<Leu<wild-type=Thr |

tested on: HNE; test: inactivation of C1 inhibitor muteins by elastase (protease sensitivity); assay type: biochemical; conditions: neutrophil elastase as the source of protease; compared to wild type C1 inhibitor
Description: as §1
Using similar approaches, the non-target protease sensitivity of the C1 inhibitor muteins may be determined. Numerous assays may be employed that measure the amount of intact C1 inhibitor mutein, or fragments that are derived from the muteins, remaining after exposure to protease. […] A solid phase assay is preferred whereby C1 inhibitor muteins are reacted with non-target protease bound to a solid matrix and the amount of proteolysis of the muteins measured by determining the amount of intact mutein remaining, or preferably by detecting fragments of the mutein.
An exemplary non-target protease that cleaves C1 is neutrophil elastase. Thus, this enzyme may be coupled to CNBr treated Sepharose 4B, and incubated with a C1 inhibitor mutein, and the presence of proteolytically cleaved C1 mutein monitored using a number of techniques. […] Subsequently, the amount of bound cleaved C1 inhibitor can be determined using a second radiolabelled antibody that recognizes the cleaved molecule. […]

| Molecule | susceptibility to inactivation |
| --- | --- |
| B7 | significantly reduced susceptibility to inactivation |
| B8 | significantly reduced susceptibility to inactivation |
